Test results published in the supplement of paper PMC10126150.
± gives the standard deviation of the averaged measurements.

test system: ATP; test: switch fluorescence ratio, 500 uM ATP over buffer (Cy3 cluster intensity, sum of 5 cycles each) (fold (ratio)); higher = stronger signal-on switching upon ATP binding; sequences stand for … in TCGTCGGCAGCGTCAGATGTGTATAAGAGACAGTTTTTTTTTTTTTTTTTTTTTTTTT…TC; conditions: aptamer strand: ATP DNA aptamer (quencher-CACCTGGGGGAGTATTGCGGAGGAAGG + anchor), 100 nM annealed; ATP concentration: 500 uM
Method in brief: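 Exposure to 500 uM ATP lasted 15 min at 22 °C before imaging, and a selection-buffer image was taken beforehand, for Cy3-labelled switching-strand clusters on a modified Illumina MiSeq flow-cell annealed to 100 nM quencher-labelled ATP aptamer. Five buffer/ATP cycles were run with NaOH stripping and re-annealing between them. The fluorescence ratio per cluster is summed target-cycle over summed buffer-cycle Cy3 intensity, averaged per switch-domain sequence. Clusters outside 100-1000 RFU were excluded.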

Point of comparison: AACCTGGGCC, switch fluorescence ratio 1.19 ± 0.099. Against it:
- AACAGTAGGG — lower, 1.03 ± 0.012
- AACAGTGTAT — lower, 1.01 ± 0.03
- AACAGTTGAA — lower, 1.0083 ± 0.00099
- AACATGTTGG — lower, 0.991 ± 0.047
- AACCACTCAT — lower, 1.02 ± 0.053
- AACCAGTATA — lower, 0.995 ± 0.024
- AACCATTTGG — lower, 0.9825 ± 0.0046
- AACCGATGCT — within error, 1.094 ± 0.005
- AACCGATGTG — lower, 1.01 ± 0.037
- AACCGGTAAT — lower, 1.01 ± 0.022
- AACCGGTTAG — lower, 0.996 ± 0.011
- AACCGTAGTC — within error, 1.15 ± 0.049
- AACCGTGTGT — lower, 0.994 ± 0.013
- AACCGTTTTG — lower, 0.979 ± 0.011
- AACCTTGTCC — higher, 1.61 ± 0.11
- AACCTTTTCA — lower, 1.067 ± 0.0026
- AACCTTTTTA — lower, 1.01 ± 0.045
- AACGAAAGGC — the same, 1.19 ± 0.012
- AACGAGGGTC — lower, 1.01 ± 0.049
- AACGAGTGTC — within error, 1.09 ± 0.11
- AACGATCTTT — lower, 0.9979 ± 0.0084
- AACGCGCGCC — lower, 1.01 ± 0.05
- AACGCGGTAT — within error, 1.03 ± 0.095
- AACGGAGTGG — lower, 1 ± 0.042
- AACGGATCGG — lower, 0.998 ± 0.025
- AACGGATGAG — lower, 0.987 ± 0.038
- AACGGCCATG — lower, 1.02 ± 0.037
- AACGGCGTGA — within error, 1.08 ± 0.14
- AACGGCTCTT — within error, 1.03 ± 0.074
- AACGGGGCTC — within error, 1.04 ± 0.066
- AACGGGGGA — lower, 0.9916 ± 0.0024
- AACGGGTCTA — lower, 1.01 ± 0.035
- AACGGGTGCA — lower, 0.9896 ± 0.0011
- AACGGTAGTG — within error, 1.09 ± 0.03
- AACGGTGATT — lower, 1.01 ± 0.07
- AACGGTGTTT — lower, 1.03 ± 0.045
- AACGTCTTTG — lower, 0.9977 ± 0.0033
- AACGTGTACG — lower, 1.01 ± 0.065
- AACGTTAAAT — lower, 1.01 ± 0.037
- AACGTTAGGG — lower, 0.998 ± 0.029
- AACGTTCCTG — within error, 1.35 ± 0.11
- AACGTTGGTA — lower, 0.989 ± 0.034
- AACTAATCGC — lower, 1.03 ± 0.029
- AACTACTTTG — lower, 1 ± 0.03
- AACTAGAGTT — lower, 0.99 ± 0.014
- AACTATAAAA — lower, 1 ± 0.014
- AACTATCTTT — lower, 1.04 ± 0.033
- AACTATGATG — lower, 0.996 ± 0.03
- AACTATGGTA — lower, 0.992 ± 0.033
- AACTCACTTT — within error, 1.09 ± 0.02
- AACTCAGATT — lower, 1.01 ± 0.026
- AACTCAGGGG — within error, 1.29 ± 0.067
- AACTCATATT — lower, 0.959 ± 0.013
- AACTCGACCC — within error, 1.05 ± 0.05
- AACTGACGGA — within error, 1.14 ± 0.026
- AACTGCAAGT — lower, 0.993 ± 0.027
- AACTGCTGTA — lower, 0.999 ± 0.02
- AACTGGACTT — within error, 1.11 ± 0.042
- AACTGGGAGA — lower, 0.98933 ± 0.0002
- AACTGGGGA — lower, 0.967 ± 0.015
- AACTGGGGC — lower, 0.959 ± 0.062
- AACTGGTTG — lower, 0.9804 ± 0.009
- AACTTGGGGA — lower, 0.9657 ± 0.0061
- AACTTGTCGA — lower, 0.886 ± 0.047
- AACTTTGACC — lower, 1.034 ± 0.0014
- AACTTTGTTT — lower, 0.9832 ± 0.0047
- AAGAAAAAGG — lower, 0.993 ± 0.036
- AAGAAACACA — lower, 1.02 ± 0.038
- AAGAAACTTC — lower, 1.007 ± 0.0024
- AAGAAATCTC — within error, 1.04 ± 0.11
- AAGAAATTAC — lower, 1.06 ± 0.028
- AAGAACTATA — within error, 1.09 ± 0.023
- AAGAAGATCA — lower, 0.975 ± 0.016
- AAGAAGGCGG — lower, 0.9845 ± 0.0069
- AAGAAGGGAT — lower, 0.953 ± 0.016
- AAGAATATTT — lower, 1.01 ± 0.012
- AAGACAGTGC — lower, 0.9932 ± 0.0059
- AAGACCGGGA — lower, 1.01 ± 0.04
- AAGACGGATT — lower, 0.9945 ± 0.0066
- AAGACGGGCT — lower, 1.01 ± 0.037
- AAGACTTGGG — lower, 1.05 ± 0.029
- AAGAGACCTT — within error, 1.28 ± 0.026
- AAGAGAGGTG — lower, 1.07 ± 0.014
- AAGAGATATA — lower, 1.008 ± 0.0037
- AAGAGCGAGT — lower, 1 ± 0.011
- AAGAGCGGGA — lower, 0.989 ± 0.041
- AAGAGCGGTG — lower, 0.952 ± 0.0049
- AAGAGGAAGG — lower, 0.9709 ± 0.0027
- AAGAGGACGA — lower, 1.01 ± 0.028
- AAGAGGAGCG — lower, 0.9668 ± 0.0078
- AAGAGGCGCT — lower, 0.995 ± 0.05
- AAGAGGCGGG — lower, 1 ± 0.019
- AAGAGGGATT — lower, 0.983 ± 0.03
- AAGAGGGCAT — lower, 1.01 ± 0.022
- AAGAGGGGGG — lower, 0.999 ± 0.053
- AAGAGGTGTT — within error, 1.04 ± 0.071
- AAGAGTTGCC — within error, 1.07 ± 0.12
- AAGATAACGG — within error, 1.07 ± 0.048
- AAGATAATAG — lower, 0.993 ± 0.024
- AAGATAGAAA — lower, 1.01 ± 0.013
- AAGATATGAT — lower, 0.989 ± 0.032
- AAGATCATAA — lower, 0.994 ± 0.019
- AAGATGGTCA — lower, 0.993 ± 0.036
- AAGATGTTGG — lower, 1.01 ± 0.04
- AAGATTGGTG — lower, 0.991 ± 0.041
- AAGATTGTTT — lower, 0.986 ± 0.033
- AAGCAGCCGG — lower, 0.99 ± 0.046
- AAGCAGCTGT — lower, 1.01 ± 0.034
- AAGCAGTAGC — lower, 1.05 ± 0.0043
- AAGCATCATT — lower, 1.0176 ± 0.00039
- AAGCATGCTC — within error, 1.09 ± 0.03
- AAGCCCGGGG — lower, 1.02 ± 0.025
- AAGCCCTAGC — lower, 0.976 ± 0.036
- AAGCCGTGTG — lower, 0.988 ± 0.042
- AAGCCTTAAA — lower, 1.06 ± 0.011
- AAGCGAGGTC — lower, 1.05 ± 0.021
- AAGCGCCCGG — lower, 1.05 ± 0.04
- AAGCGGAGGG — lower, 1.02 ± 0.062
- AAGCGGGGAC — lower, 1.07 ± 0.013
- AAGCGGGTTT — lower, 0.96 ± 0.03
- AAGCGTGGGA — lower, 1.02 ± 0.039
- AAGCGTGGGG — lower, 1.02 ± 0.025
- AAGCGTTGTG — lower, 0.9984 ± 0.008
- AAGCTCCTCT — lower, 1.03 ± 0.032
- AAGCTGAGAA — lower, 1.016 ± 0.0071
- AAGCTTCGGG — lower, 1.06 ± 0.029
- AAGCTTTGTG — lower, 0.9786 ± 0.0076
- AAGGAAGGGG — within error, 1.14 ± 0.2
- AAGGAAGTGG — lower, 0.99 ± 0.022
- AAGGAATAGG — lower, 0.98 ± 0.016
- AAGGACAGGA — lower, 1.03 ± 0.026
- AAGGACGCCT — lower, 1.03 ± 0.0041
- AAGGAGACTA — lower, 1.02 ± 0.05
- AAGGAGAGTG — lower, 0.991 ± 0.028
- AAGGAGGGAT — lower, 1 ± 0.036
- AAGGAGTTGC — lower, 0.9733 ± 0.0062
- AAGGATAGAT — lower, 0.985 ± 0.025
- AAGGATAGGC — lower, 1 ± 0.013
- AAGGATGGGG — lower, 0.98 ± 0.022
- AAGGATGTAT — lower, 0.969 ± 0.036
- AAGGATTATG — lower, 1 ± 0.07
- AAGGATTATT — lower, 0.97 ± 0.024
- AAGGCAGGCG — lower, 0.977 ± 0.096
- AAGGCATCAG — lower, 0.9915 ± 0.0045
- AAGGCGAGGT — lower, 0.994 ± 0.022
- AAGGCGCGTG — lower, 1.01 ± 0.045
- AAGGCGTGAG — lower, 1.02 ± 0.016
- AAGGCTAGGA — lower, 1 ± 0.036
- AAGGCTGATG — lower, 0.983 ± 0.017
- AAGGCTGTGT — lower, 1.001 ± 0.0095
- AAGGCTTGAT — lower, 0.9998 ± 0.0081
- AAGGCTTTTT — lower, 0.9935 ± 0.0077
